Target: ephrin B3 expressed on CHO cells
Assay: inferred by the filing from ELISA, Octet and flow cytometry taken together

For “wild-type (WT) human EphA4-Fc (Fc fusion)”, the concentration that would saturate was over 10 µg/mL.

— patent US20180339020A1
